Experimental data: publication PMC10350043
Where no end group is shown, it is not given here. QXL520 = dark acceptor

What was measured:
Assay in all cases: FRET or BRET
[1] = biological target: RyR2 in cardiac SR membranes decorated with D-85-FKBP (porcine (endogenous in porcine heart) | human)
[2] = biological target: RyR2 in cardiac SR membranes decorated with D-49-FKBP (porcine (endogenous in porcine heart) | human)
[3] = biological target: RyR2 in cardiac SR membranes decorated with D-32-FKBP (porcine (endogenous in porcine heart) | human)

QXL520-GFCPDHKAAMVLFLDRVYGIEVQDFLLHLLEVGFLP [acceptor-labeled DPc10 (QXL520 at the N-terminus)]
Kd [1]: 10.4 µM
Kd [2]: 9.9 µM
Kd [3]: 13.1 µM
